Experiment: soluble on expression in E. coli; label from the status in PepcDB or PDB records

| Sequence | soluble on expression in E. coli |
| --- | --- |
| MIDSANRADVFLRKPAPVAPELQHEVEQFYYWEAKLLNDRRFEEWFALLAEDIHYFMPIRTTRIMRDSRLEYSGSREYAHFDDDATMMKGRLRKITSDVSWSENPASRTRHLVSNVMIVGAEAEGEYEISSAFIVYRNRLERQLDIFAGERRDTLRRNTSEAGFEIVNRTILIDQSTILANNLSFFF | soluble |
| MQKIKSLMTRQGLKSPQESLSDLGAIESLRVPGKEEFRELREQPSDPQAEQELINSIEQVYFSVDSFDIVKYELEKLPPVLNLQELEAYRDKLKQQQAAVSKKVADLILEKQPAYVKELERVTSLQTGLQLAAVICTNGRRHLNIAKEGFTQASLGLLANQRKRQLLIGLLKSLRTIKTLQRTDVRLSEMLEEEDYPGAIQLCLECQKAASTFKHYSCISELNSKLQDTLEQIEEQLDVALSKICKNFDINHYTKVQQAYRLLGKTQTAMDQLHMHFTQAIHNTVFQVVLGYVELCAGNTDTKFQKLQYKDLCTVCSDLITIHISLL | soluble |
| MRLFLLLLSLLLISITTAFALDKPDGSNSIEDQTALFFGKDDRTAVTNSRQWPWEAIGQVETASGNPCTATLISPRLVLTAGHCVLTPPGNIDQAVALRFISDKGHWKYQITDLKTRVDAKLGQKLKADGDGWIVPPAAAAYDFALIQLTNAAPIPIKPLPLWEGTANELTKALKLVNRKVTQAGYPLDNLNTLYKHEDCLVTGWAQQGVLAHQCDTLPGDSGSPLLLKNGNSWSLIAIQSSAPAAKERYLADNRALSVTAINNRLKKLVNKIADTTQ | not soluble |
| MGSDKIHHHHHHMLITCSESGIDFGKSLSTYIHEYLGLNRNCRLFEVKQACYSGTAGFQMAVNFILSQTSPGAKALVIASDISRFLIAEGGDALSEDWSYAEPSAGAGAVAVLVGENPEVFQIDPGANGYYGYEVMDTCRPIPDSEAGDSDLSLMSYLDCCEQTFLEYQKRVPGANYQDTFQYLAYHTPFGGMVKGAHRTMMRKVAKVKTSGIETDFLTRVKPGLNYCQRVGNIMGAALFLALASTIDQGRFDTPKRIGCFSYGSGCCSEFYSGITTPQGQERQRTFGIEKHLDRRYQLSMEEYELLFKGSGMVRFGTRNVKLDFEMIPGIMQSTQEKPRLFLEEISEFHRKYRWIS | not soluble |

— the DeepSol protein solubility set
